First the molecules themselves.
B1: unnamed (protein)
chain: SNPYQRGPNPTRSALTADGPFSVATYTVSRLSVSGFGGGVIYYPTGTSLTFGGIAMSPGYTADASSLAWLGRRLASHGFVVLVINTNSRFDYPDSRASQLSAALNYLRTSSPSAVRARLDANRLAVAGHSMGGGGTLRIAEQNPSLKAAVPLTPWHTDKTFNTSVPVLIVGAEADTVAPVSQHAIPFYQNLPSTTPKVYVELDNASHFAPNSNNAAISVYTISWMKLWVDNDTRYRQFLCNVNDPALSDFRTNNRHCQLEHHHHHH
B2: unnamed (protein)
chain: QTNPYARGPNPTAASLEASAGPFTVRSFTVSRPSGYGAGTVYYPTNAGGTVGAIAIVPGYTARQSSIKWWGPRLASHGFVVITIDTNSTLDQPESRSSQQMAALRQVASLNGTSSSPIYGKVDTARMGVMGWSMGGGGSLISAANNPSLKAAAPQAPWHSSTNFSSVTVPTLIFACENDSIAPVNSSALPIYDSMSRNAKQFLEINGGSHSCANSGNSNQALIGKKGVAWMKRFMDNDTRYSTFACENPNSTAVSDFRTANCSLEHHHHHH
B3: unnamed (protein)
chain: B2 chain with R197Q, N206K
B4: unnamed (protein)
chain: B2 chain with E94S, H159D, A253R
B5: unnamed (protein)
chain: QTNPYARGPNPTAASLEASAGPFTVRSFTVSRPSGYGAGTVYYPTNAGGTVGAIAIVPGYTARQSSIKWWGPRLASHGFVVITIDTNSTFDYPSSRSSQQMAALRQVASLNGDSSSPIYGKVDTARMGVMGHSMGGGASLRSAANNPSLKAAIPQAPWDSQTNFSSVTVPTLIFACENDSIAPVNSHALPIYDSMSRNAKQFLEINGGSHSCANSGNSNQALIGKKGVAWMKRFMDNDTRYSTFACENPNSTAVSDFRTANCSLEHHHHHH
B6: unnamed (protein)
chain: MSNPYQRGPNPTRSALTADGPFSVATYTVSRLSVSGFGGGVIYYPTGTSLTFGGIAMSPGYTADASSLAWLGRRLASHGFVVLVINTNSRFDYPDSRASQLSAALNYLRTSSPSAVRARLDANRLAVAGHSMGGGGTLRIAEQNPSLKAAVPLTPWHTDKTFNTSVPVLIVGAEADTVAPVSQHAIPFYQNLPSTTPKVYVELCNASHIAPMSNNAAISVYTISWMKLWVDNDTRYRQFLCNVNDPALCDFRTNNRHCQLEHHHHHH

Substitutions are numbered along the chain they refer to.

Substrate in one data set: PET
Briefly: Proxy for plastic degradation [Released monomer concentration (HPLC/LC-MS) (MHET+TPA)]. The settings on record: pH 6.5; 30 °C.
B1: the “Proxy for plastic degradation” value was determined as 0.17 mM.
As to B6, the “Proxy for plastic degradation” value was 0.18 mM.

The data set is the same for the next values; noted with them: pH 6.5; 40 °C.
Consider B1, for which the “Proxy for plastic degradation” value turned out to be 0.2 mM.
As for B6, the “Proxy for plastic degradation” value turned out to be 0.8 mM.

Still in this data set, the particulars now being: pH 7; 30 °C.
As to B1, the “Proxy for plastic degradation” value is 0.2 mM.
Same read-out and setting: next, B6: 0.23 mM.

Staying with this data set, now noted: pH 7; 40 °C.
Take B1: the “Proxy for plastic degradation” value worked out at 0.4 mM.
With B6, the “Proxy for plastic degradation” value was 2 mM.

The same data set, now with this note: pH 7.5; 30 °C.
As to B1, the “Proxy for plastic degradation” value came to 0.22 mM.
Consider B6, for which the “Proxy for plastic degradation” value worked out at 0.23 mM.

Still in this data set, the particulars now being: pH 7.5; 40 °C.
B1: the “Proxy for plastic degradation” value came to 1.9 mM.
On the same count and under the same terms, next, B6: 3 mM.

The data set is the same for the next values; noted with them: pH 8; 30 °C.
With B1, the “Proxy for plastic degradation” value came out at 0.25 mM.
Still for that read-out and setting: the same measure for B6: 0.37 mM.

Still in this data set, the particulars now being: pH 8; 40 °C.
As to B1, the “Proxy for plastic degradation” value came out at 2.3 mM.
Still for that read-out and setting: the same measure for B6: 4 mM.

The data set is the same for the next values; noted with them: pH 6.5; 30 °C; part of the chain shown.
B2: the “Proxy for plastic degradation” value turned out to be 0.6 mM.
On the same count and under the same terms, next, B3: 0.7 mM; B4: 0.1 mM.
Same read-out and setting: next, B5: 0.15 mM.

Still in this data set, the particulars now being: pH 6.5; 40 °C; part of the chain shown.
Regarding B2, the “Proxy for plastic degradation” value was 0.5 mM.
Consider B3, for which the “Proxy for plastic degradation” value was 1 mM.
Same read-out and setting: next, B4: 0 mM; B5: 0 mM.

The data set is the same for the next values; noted with them: pH 7; 30 °C; part of the chain shown.
For B2, the “Proxy for plastic degradation” value was 1.2 mM.
Still for that read-out and setting: next, B3: 1.5 mM; B4: 0.15 mM; B5: 0.15 mM.

Staying with this data set, now noted: pH 7; 40 °C; part of the chain shown.
Regarding B2, the “Proxy for plastic degradation” value stood at 9 mM.
Same read-out and setting: the same measure for B3: 12 mM.
The same measure, in the same setting: the same measure for B4: 0 mM; for B5: 0.3 mM.

The same data set, now with this note: pH 7.5; 30 °C; part of the chain shown.
Regarding B2, the “Proxy for plastic degradation” value stood at 2.3 mM.
On the same count and under the same terms, the same measure for B3: 2.9 mM; for B4: 0.25 mM.
For B5, the “Proxy for plastic degradation” value was 0.2 mM.

Still in this data set, the particulars now being: pH 7.5; 40 °C; part of the chain shown.
Turning to B2, the “Proxy for plastic degradation” value was 12 mM.
On the same count and under the same terms, next, B3: 19 mM; B4: 0 mM; B5: 1 mM.

Still in this data set, the particulars now being: pH 8; 30 °C; part of the chain shown.
In the case of B2, the “Proxy for plastic degradation” value came to 2.9 mM.
The same measure, in the same setting: the same measure for B3: 3.6 mM.
The same measure, in the same setting: next, B4: 0.6 mM; B5: 0.15 mM.

The same data set, now with this note: pH 8; 40 °C; part of the chain shown.
As for B2, the “Proxy for plastic degradation” value was found to be 13 mM.
On the same count and under the same terms, the same measure for B3: 32 mM.
Still for that read-out and setting: next, B4: 0.2 mM; B5: 2 mM.

The same data set, now with this note: pH 8; 1 h; part of the chain shown.
In the case of B3, the “Proxy for plastic degradation” value stood at 13.4 mM.

Still in this data set, the particulars now being: pH 8; 2 h; part of the chain shown.
For the protein B3, the “Proxy for plastic degradation” value was 31.1 mM.

The same data set, now with this note: pH 8; 3 h; part of the chain shown.
With B3, the “Proxy for plastic degradation” value stood at 48.7 mM.

The same data set, now with this note: pH 8; 4 h; part of the chain shown.
Turning to B3, the “Proxy for plastic degradation” value worked out at 66.7 mM.

The same data set, now with this note: pH 8; 5 h; part of the chain shown.
With B3, the “Proxy for plastic degradation” value came to 88 mM.

The same data set, now with this note: pH 8; 6 h; part of the chain shown.
Regarding B3, the “Proxy for plastic degradation” value came out at 109 mM.

Staying with this data set, now noted: pH 8; 7 h; part of the chain shown.
For B3, the “Proxy for plastic degradation” value was 131 mM.

Staying with this data set, now noted: pH 8; 8 h; part of the chain shown.
Regarding B3, the “Proxy for plastic degradation” value came out at 148 mM.

The data set is the same for the next values; noted with them: pH 8; 9 h; part of the chain shown.
For B3, the “Proxy for plastic degradation” value was 163 mM.

Still in this data set, the particulars now being: pH 8; 10 h; part of the chain shown.
In the case of B3, the “Proxy for plastic degradation” value worked out at 175 mM.

The data set is the same for the next values; noted with them: pH 8; 11 h; part of the chain shown.
Turning to B3, the “Proxy for plastic degradation” value was 185 mM.

Staying with this data set, now noted: pH 8; 12 h; part of the chain shown.
Regarding B3, the “Proxy for plastic degradation” value is 195 mM.

The same data set, now with this note: pH 8; 13 h; part of the chain shown.
For the protein B3, the “Proxy for plastic degradation” value was 204 mM.

The same data set, now with this note: pH 8; 13.5 h; part of the chain shown.
For B3, the “Proxy for plastic degradation” value was found to be 208 mM.

(Values after the PETadex activity labels (doi:10.1038/s41586-022-04599-z).)
